Legend:
[1] = target: T1, Human HER3-His (Sino Biological, 10201-H08H) (human, UniProt P21860 20-643); experiment: ELISA, coated His-tagged antigen
T1 construct: Specificity control; also called Human HERS-His

[2] = target: T2, His-tagged cynomolgous macaque BCMA (Acro Biosystems, BCA-C52H7) (cynomolgus macaque, UniProt Q02223 1-54 (human entry)); experiment: ELISA, coated Cyno BCMA-His
T2 construct: Bought protein; also called cyno BCMA; CyBCMA; not shown: His tag

[3] = target: T3, Cyno TACI-His (Sino Biological, 90976-C08H) (cynomolgus macaque, UniProt G7PTR7 1-165); experiment: ELISA, coated Cyno TACI-His
T3 construct: Bought protein; also called cynomolgous macaque TACI; CyTACI
T3 sequence: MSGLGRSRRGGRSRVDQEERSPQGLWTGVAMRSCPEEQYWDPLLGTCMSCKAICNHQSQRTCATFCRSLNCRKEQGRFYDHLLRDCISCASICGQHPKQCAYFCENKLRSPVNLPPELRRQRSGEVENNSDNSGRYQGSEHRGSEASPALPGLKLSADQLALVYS

[4] = target: T4, Human BCMA-His (Sino Biological, 10620-H08H) (human, UniProt Q02223 1-54); experiment: ELISA, coated Human BCMA-His
T4 construct: not shown: His tag
T4 sequence: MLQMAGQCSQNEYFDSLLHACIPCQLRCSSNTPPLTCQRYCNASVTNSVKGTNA

[5] = target: T5, recombinant his-tagged human TACI (Sinobiological cat #11937-H08H) (human, UniProt O14836 1-165); experiment: ELISA, coated Human TACI-His
T5 construct: Bought protein; also called Human TACI-His; huTACI; not shown: His tag
T5 sequence: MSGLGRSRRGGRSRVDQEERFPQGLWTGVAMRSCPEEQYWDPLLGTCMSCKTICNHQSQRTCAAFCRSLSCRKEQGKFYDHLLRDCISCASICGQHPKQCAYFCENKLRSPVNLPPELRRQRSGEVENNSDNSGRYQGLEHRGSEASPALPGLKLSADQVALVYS

[6] = target: T6, human BCMA expressed on cells (human, UniProt Q02223 1-184); experiment: flow cytometry, H929 cells (BCMA+)
T6 construct: the cell line is named under assay; also called wildtype human BCMA
T6 sequence: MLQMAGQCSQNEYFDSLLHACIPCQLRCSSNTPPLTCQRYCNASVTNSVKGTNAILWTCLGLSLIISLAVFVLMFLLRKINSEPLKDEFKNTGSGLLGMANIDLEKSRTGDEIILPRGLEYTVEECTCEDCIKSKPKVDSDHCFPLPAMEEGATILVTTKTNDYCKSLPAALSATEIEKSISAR

[7] = target: T6, human BCMA expressed on cells; experiment: flow cytometry, fixed RPMI 8226 cells (BCMA+, TACI+: the cells carry both targets)
[8] = target: T7, His-tagged human BCMA (Acro Biosystems, Cat. #BCA-H522y) (human, UniProt Q02223 1-54); experiment: HDX-MS of the 1:1 complex against free BCMA
T7 construct: also called huBCMA; P1; not shown: His tag
T7 sequence: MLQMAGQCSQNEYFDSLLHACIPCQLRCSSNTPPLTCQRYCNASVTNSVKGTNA

B1: 1C8-6A3 hIgG1 (antibody, V domains shown)
VH: QVQLVQSGAEVKKPGASVKVSCKASGYTFTNYVMHWVKQKPGQGLEWMGYILPYNDGTKYAQKFQGKVTMTSDKSTSTVYMELSSLTSEDTAVYYCARYDYEGSFDYWGQGTLVTVSS
VL: DIQMTQSPSSLSASVGDRVTITCRASQDISNYLNWYQQKPGKAPKLLMCYTSRLHSGVPSRFSGSGSGTDFTLTISSLEQEDFATYYCQQGNTFPPTFGGGTKVEIKR
notes: also called [94]; hu1C8
binding result [1]: no binding (tested: 3 µg/ml (highest concentration))
binding result [2]: binds
EC50 [3]: 28 pM
EC50 [4]: 5 pM
EC50 [5]: 1320 pM
EC50 [6]: 111 pM
EC50 [7]: 238 pM

B2: 1C8-402 hIgG1 (LALA) (antibody)
heavy: not shown
light: DIQMTQSPSSLSASVGDRVTITCRASQDISNYLSWYQQKPGKAPKLLMRYTSRLHSGVPSRFSGSGSGTDFTLTISSLEQEDFATYYCQQGNLFPPTFGGGTKVEIKRTVAAPSVFIFPPSDEQLKSGTASVVCLLNNFYPREAKVQWKVDNALQSGNSQESVTEQDSKDSTYSLSSTLTLSKADYEKHKVYACEVTHQGLSSPVTKSFNRGEC
notes: also called S1
binding result [8]: binds
